# Experimental data from US5622933A, “Multiple branch peptide constructions for use against HIV” (priority 1993, dated 1997).
# Where “and” joins values, the source holds several entries; their conditions need not be identical. Identical values can stand only once.
# How the values were obtained:
# [1] = system: Peripheral blood lymphocytes (PBL); assay: PBL antigen and mitogen induced proliferation ([3H]thymidine incorporation); type: cell-based, human; conditions: Donor 3, MBPCs 5×10^-6 M
# Protocol: Peripheral blood lymphocytes (PBL) from 3 healthy HIV sero-negative donors were isolated from heparinized blood by the Ficoll-Hypaque technique. The culture medium was RPMI 1640 supplemented with 1% glutamine, 1% antibiotics and 10% heat inactivated fetal calf serum. Cells (10^5) were incubated in the presence of MBPCs (5×10^-6 M) with or without antigen (candidine, PPD) or mitogen (PHA). Antigen or mitogen treated cells were pulsed for eight hours with […] of [3H] thymidine. Then cells were harvested and [3H] thymidine incorporation in DNA was counted. […]
# HIV-1 (NDK) = assay: Fusion between chronically infected CEM cells and MT-2 cells; type: cell-based; conditions: separate tests
# C57/BL6 black mice = assay: Immunogenicity in mice (serum ELISA for anti-MBPC3 antibody); type: in vivo, mouse
# Protocol: The injection route was intraperitoneal. The blood samples were collected by sub-orbital eye punction. The blood samples were left for 1 hour at 37° C., then overnight at 4° C., and the supernatants (serum samples) thus obtained were separated from the pellets. Sera were tested by ELISA, looking for specific anti-MBPC3 antibody.
# […] After saturation with 400 μL of casein (5 g/100 ml), different serum dilutions were added for 2 hours at 37° C. The controls were sera from non-immunized rabbits and mice. After rinsing (5×), 50 μl of 1:5000 of peroxidase-labeled swine anti-rabbit IgG or anti-mouse IgG (Dakopatts, Copenhagen, Denmark) were added for 1 hour at 37° C. After further rinsing (5×), 100 μl of ortho-phenylenediamine were added for 30 min in the dark at room temperature. The reaction was stopped by adding 50 μl of 4N sulfuric acid, and optical density (OD) ratios were determined at 492/620 nm.
# HIV-2 (ROD) = assay: Fusion between chronically infected CEM cells and MT-2 cells; type: cell-based; conditions: separate tests
substance,measurement,setting,value
(GPGRAF)8 -(K)4 -(K)2 -K-βA-OH [MBPC.3],[3H] Thymidine Incorporation,[1]; Cand2,1200 cpm
same,[3H] Thymidine Incorporation,[1]; PHA1,162000 cpm
same,[3H] Thymidine Incorporation,[1]; PHA2,154000 cpm
same,[3H] Thymidine Incorporation,[1]; PPD1,3900 cpm
same,[3H] Thymidine Incorporation,[1]; PPD2,3100 cpm
same,block of fusion,HIV-1 (NDK),able to block the fusion
same,titers of anti-GPGRAF antibodies,C57/BL6 black mice; mice injected,did not produce significant titers
same,optical density (OD) ratio 492/620 nm (×10^3),"C57/BL6 black mice; plate 1, mouse serum 10^-2, coat 0.5 μg MBPC.3/ml",382 and 381
same,optical density (OD) ratio 492/620 nm (×10^3),"C57/BL6 black mice; plate 1, mouse serum 10^-2, coat 1 μg MBPC.3/ml",444 and 419
same,optical density (OD) ratio 492/620 nm (×10^3),"C57/BL6 black mice; plate 1, mouse serum 10^-2, coat 5 μg MBPC.3/ml",1045 and 933
same,optical density (OD) ratio 492/620 nm (×10^3),"C57/BL6 black mice; plate 1, mouse serum 10^-2, coat 10 μg MBPC.3/ml",1162 and 1199
same,optical density (OD) ratio 492/620 nm (×10^3),"C57/BL6 black mice; plate 1, mouse serum 10^-3, coat 0.5 μg MBPC.3/ml",128 and 135
same,optical density (OD) ratio 492/620 nm (×10^3),"C57/BL6 black mice; plate 1, mouse serum 10^-3, coat 1 μg MBPC.3/ml",126 and 111
same,optical density (OD) ratio 492/620 nm (×10^3),"C57/BL6 black mice; plate 1, mouse serum 10^-3, coat 5 μg MBPC.3/ml",285 and 236
same,optical density (OD) ratio 492/620 nm (×10^3),"C57/BL6 black mice; plate 1, mouse serum 10^-3, coat 10 μg MBPC.3/ml",339 and 291
same,optical density (OD) ratio 492/620 nm (×10^3),"C57/BL6 black mice; plate 1, mouse serum 10^-4, coat 0.5 μg MBPC.3/ml",56 and 38
same,optical density (OD) ratio 492/620 nm (×10^3),"C57/BL6 black mice; plate 1, mouse serum 10^-4, coat 1 μg MBPC.3/ml",50 and 51
same,optical density (OD) ratio 492/620 nm (×10^3),"C57/BL6 black mice; plate 1, mouse serum 10^-4, coat 5 μg MBPC.3/ml",121 and 132
same,optical density (OD) ratio 492/620 nm (×10^3),"C57/BL6 black mice; plate 1, mouse serum 10^-4, coat 10 μg MBPC.3/ml",172 and 138
same,optical density (OD) ratio 492/620 nm (×10^3),"C57/BL6 black mice; plate 2, mouse serum 10^-2, coat 1 μg MBPC.3/ml",381 and 429
same,optical density (OD) ratio 492/620 nm (×10^3),"C57/BL6 black mice; plate 2, mouse serum 10^-2, coat 5 μg MBPC.3/ml",1514 and 1344
same,optical density (OD) ratio 492/620 nm (×10^3),"C57/BL6 black mice; plate 2, mouse serum 10^-2, coat 10 μg MBPC.3/ml",1540 and 1457
same,optical density (OD) ratio 492/620 nm (×10^3),"C57/BL6 black mice; plate 2, mouse serum 10^-3, coat 0.5 μg MBPC.3/ml",47 and 82
same,optical density (OD) ratio 492/620 nm (×10^3),"C57/BL6 black mice; plate 2, mouse serum 10^-3, coat 1 μg MBPC.3/ml",54 and 65
same,optical density (OD) ratio 492/620 nm (×10^3),"C57/BL6 black mice; plate 2, mouse serum 10^-3, coat 5 μg MBPC.3/ml",263 and 273
same,optical density (OD) ratio 492/620 nm (×10^3),"C57/BL6 black mice; plate 2, mouse serum 10^-3, coat 10 μg MBPC.3/ml",334 and 291
same,optical density (OD) ratio 492/620 nm (×10^3),"C57/BL6 black mice; plate 2, mouse serum 10^-4, coat 1 μg MBPC.3/ml",15 and 17
same,optical density (OD) ratio 492/620 nm (×10^3),"C57/BL6 black mice; plate 2, mouse serum 10^-4, coat 5 μg MBPC.3/ml",88 and 97
same,optical density (OD) ratio 492/620 nm (×10^3),"C57/BL6 black mice; plate 2, mouse serum 10^-4, coat 10 μg MBPC.3/ml",132 and 188
same,optical density (OD) ratio 492/620 nm (×10^3),"C57/BL6 black mice; plate 3, mouse serum 10^-2, coat 0.5 μg MBPC.3/ml",204 and 198
same,optical density (OD) ratio 492/620 nm (×10^3),"C57/BL6 black mice; plate 3, mouse serum 10^-2, coat 1 μg MBPC.3/ml",241 and 200
same,optical density (OD) ratio 492/620 nm (×10^3),"C57/BL6 black mice; plate 3, mouse serum 10^-2, coat 5 μg MBPC.3/ml",636 and 630
same,optical density (OD) ratio 492/620 nm (×10^3),"C57/BL6 black mice; plate 3, mouse serum 10^-2, coat 10 μg MBPC.3/ml",639 and 664
same,optical density (OD) ratio 492/620 nm (×10^3),"C57/BL6 black mice; plate 3, mouse serum 10^-3, coat 0.5 μg MBPC.3/ml",48 and 49
same,optical density (OD) ratio 492/620 nm (×10^3),"C57/BL6 black mice; plate 3, mouse serum 10^-3, coat 1 μg MBPC.3/ml",50 and 53
same,optical density (OD) ratio 492/620 nm (×10^3),"C57/BL6 black mice; plate 3, mouse serum 10^-3, coat 5 μg MBPC.3/ml",159 and 163
same,optical density (OD) ratio 492/620 nm (×10^3),"C57/BL6 black mice; plate 3, mouse serum 10^-3, coat 10 μg MBPC.3/ml",172 and 168
same,optical density (OD) ratio 492/620 nm (×10^3),"C57/BL6 black mice; plate 3, mouse serum 10^-4, coat 0.5 μg MBPC.3/ml",22 and 21
same,optical density (OD) ratio 492/620 nm (×10^3),"C57/BL6 black mice; plate 3, mouse serum 10^-4, coat 1 μg MBPC.3/ml",22
same,optical density (OD) ratio 492/620 nm (×10^3),"C57/BL6 black mice; plate 3, mouse serum 10^-4, coat 5 μg MBPC.3/ml",83 and 84
same,optical density (OD) ratio 492/620 nm (×10^3),"C57/BL6 black mice; plate 3, mouse serum 10^-4, coat 10 μg MBPC.3/ml",85 and 84
same,optical density (OD) ratio 492/620 nm (×10^3),"C57/BL6 black mice; plate 4, mouse serum 10^-2, coat 0.5 μg MBPC.3/ml",495 and 468
same,optical density (OD) ratio 492/620 nm (×10^3),"C57/BL6 black mice; plate 4, mouse serum 10^-2, coat 1 μg MBPC.3/ml",553 and 439
same,optical density (OD) ratio 492/620 nm (×10^3),"C57/BL6 black mice; plate 4, mouse serum 10^-2, coat 5 μg MBPC.3/ml",1233 and 1336
same,optical density (OD) ratio 492/620 nm (×10^3),"C57/BL6 black mice; plate 4, mouse serum 10^-2, coat 10 μg MBPC.3/ml",1454 and 1340
same,optical density (OD) ratio 492/620 nm (×10^3),"C57/BL6 black mice; plate 4, mouse serum 10^-3, coat 0.5 μg MBPC.3/ml",90 and 95
same,optical density (OD) ratio 492/620 nm (×10^3),"C57/BL6 black mice; plate 4, mouse serum 10^-3, coat 1 μg MBPC.3/ml",83 and 88
same,optical density (OD) ratio 492/620 nm (×10^3),"C57/BL6 black mice; plate 4, mouse serum 10^-3, coat 5 μg MBPC.3/ml",299 and 297
same,optical density (OD) ratio 492/620 nm (×10^3),"C57/BL6 black mice; plate 4, mouse serum 10^-3, coat 10 μg MBPC.3/ml",334 and 318
same,optical density (OD) ratio 492/620 nm (×10^3),"C57/BL6 black mice; plate 4, mouse serum 10^-4, coat 0.5 μg MBPC.3/ml",28
same,optical density (OD) ratio 492/620 nm (×10^3),"C57/BL6 black mice; plate 4, mouse serum 10^-4, coat 1 μg MBPC.3/ml",27 and 21
same,optical density (OD) ratio 492/620 nm (×10^3),"C57/BL6 black mice; plate 4, mouse serum 10^-4, coat 5 μg MBPC.3/ml",124 and 103
same,optical density (OD) ratio 492/620 nm (×10^3),"C57/BL6 black mice; plate 4, mouse serum 10^-4, coat 10 μg MBPC.3/ml",133 and 113
same,block of fusion,HIV-2 (ROD),able to block the fusion
